{"source": "IntAct's records for PubMed 17555716", "parents": {"B1": {"name": "26S proteasome regulatory subunit 6B homolog (Saccharomyces cerevisiae), P33298 (parent)", "chain": "MEELGIVTPVEKAVEEKPAVKSYASLLAQLNGTVNNNSALSNVNSDIYFKLKKLEKEYELLTLQEDYIKDEQRHLKRELKRAQEEVKRIQSVPLVIGQFLEPIDQNTGIVSSTTGMSYVVRILSTLDRELLKPSMSVALHRHSNALVDILPPDSDSSISVMGENEKPDVTYADVGGLDMQKQEIREAVELPLVQADLYEQIGIDPPRGVLLYGPPGTGKTMLVKAVANSTKAAFIRVNGSEFVHKYLGEGPRMVRDVFRLARENAPSIIFIDEVDSIATKRFDAQTGSDREVQRILIELLTQMDGFDQSTNVKVIMATNRADTLDPALLRPGRLDRKIEFPSLRDRRERRLIFGTIASKMSLAPEADLDSLIIRNDSLSGAVIAAIMQEAGLRAVRKNRYVILQSDLEEAYATQVKTDNTVDKFDFYK", "partner": "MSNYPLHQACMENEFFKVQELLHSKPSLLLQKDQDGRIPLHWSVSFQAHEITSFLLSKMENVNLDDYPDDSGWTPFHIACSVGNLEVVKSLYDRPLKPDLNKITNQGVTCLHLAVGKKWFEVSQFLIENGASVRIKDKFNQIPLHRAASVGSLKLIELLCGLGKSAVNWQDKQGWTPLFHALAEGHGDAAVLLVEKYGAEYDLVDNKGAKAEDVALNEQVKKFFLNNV"}}, "data": [{"variants_of": "B1", "settings": "with psd10_yeast NAS6, P50086", "values": [{"variant": "MEELGIVTPVEKAVEEKPAVKSYASLLAQLNGTVNNNSALSNVNSDIYFKLKKLEKEYELLTLQEDYIKDEQRHLKRELKRAQEEVKRIQSVPLVIGQFLEPIDQNTGIVSSTTGMSYVVRILSTLDRELLKPSMSVALHRHSNALVDILPPDSDSSISVMGENEKPDVTYADVGGLDMQKQEIREAVELPLVQADLYEQIGIDPPRGVLLYGPPGTGKTMLVKAVANSTKAAFIRVNGSEFVHKYLGEGPRMVRDVFRLARENAPSIIFIDEVDSIATKRFDAQTGSDREVQRILIELLTQMDGFDQSTNVKVIMATNRADTLDPALLRPGRLDRKIEFPSLRDRRERRLIFGTIASKMSLAPEADLDSLIIRNDSLSGAVIAAIMQEAGLRAVRANAYVILQSDLEEAYATQVKTDNTVDKFDFYK", "note": "[K397A;R399A]", "effect of a mutation on the interaction": "disrupting interaction strength"}, {"variant": "MEELGIVTPVEKAVEEKPAVKSYASLLAQLNGTVNNNSALSNVNSDIYFKLKKLEKEYELLTLQEDYIKDEQRHLKRELKRAQEEVKRIQSVPLVIGQFLEPIDQNTGIVSSTTGMSYVVRILSTLDRELLKPSMSVALHRHSNALVDILPPDSDSSISVMGENEKPDVTYADVGGLDMQKQEIREAVELPLVQADLYEQIGIDPPRGVLLYGPPGTGKTMLVKAVANSTKAAFIRVNGSEFVHKYLGEGPRMVRDVFRLARENAPSIIFIDEVDSIATKRFDAQTGSDREVQRILIELLTQMDGFDQSTNVKVIMATNRADTLDPALLRPGRLDRKIEFPSLRDRRERRLIFGTIASKMSLAPAAALDSLIIRNDSLSGAVIAAIMQEAGLRAVRKNRYVILQSDLEEAYATQVKTDNTVDKFDFYK", "note": "[E365A;D367A]", "effect of a mutation on the interaction": "disrupting interaction strength"}]}]}
